Target: Fas/CD95 (human (endogenous in U-2 OS)) (UniProt P25445)
Sequence of UniProt P25445 (P25445 26-335): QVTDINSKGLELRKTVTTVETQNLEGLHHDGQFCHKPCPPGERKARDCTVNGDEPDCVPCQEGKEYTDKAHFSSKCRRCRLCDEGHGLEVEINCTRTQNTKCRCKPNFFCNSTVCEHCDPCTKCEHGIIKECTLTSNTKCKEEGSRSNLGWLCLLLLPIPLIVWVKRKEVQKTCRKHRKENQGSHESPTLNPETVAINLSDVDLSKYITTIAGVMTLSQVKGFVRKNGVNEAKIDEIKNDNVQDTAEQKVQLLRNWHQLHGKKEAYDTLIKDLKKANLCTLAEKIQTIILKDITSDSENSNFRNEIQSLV

Substance: Fas ligand (from UniProt P48023 1-281)
- U-2 OS cell death with no granzyme-B FRET signal change in co-culture with primary NK cells (3-day cultured in IL-2), with 1.5 μg/ml anti-Fas neutralizing antibody (clone ZB4); control about 65%: 28%

— PMC5216932
